The results in this text go back to the nanobody polyreactivity screen of Harvey et al. (2022).

A short description of this series: yeast display, Sf9 membrane polyspecificity reagent, FACS + sequencing; frameworks hold sequencing errors. The essentials:
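Galactose-induced (36–48 hours) yeast carrying a synthetic nanobody display library were exposed to 10% biotinylated, detergent-solubilized Sf9 membrane reagent at 4 °C for 1 hour. FACS followed streptavidin microbead enrichment, using low and high (top ~1%) gates for expression (anti-HA) and reagent binding (streptavidin). Colony PCR, MiSeq 2 × 250 sequencing and CDR-length filtering followed. Labels for polyreactivity reflect the gate of origin.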
As for “QVQLVESGGGLVQAGGSLRLSCASSGIILYAYAKGWYRQAPGKERELVAAISRSGGRTYYADSVKGRFTISRDKAKNTVYLQMNSLKPEDTAVYYCATVTRYPDGHRFDYWGQGTQVTVSS”, the “polyreactivity (PSR sort gate)” value is “high polyreactivity”.

As for “QVQLVESGGGLVQAGGSLRLSCPASGFIFRYYAMGWYRQAPGKERELVAAISWSGGSTYYADSVKGRFTISRDSAKNTVYLQIYSLKPEDTAVYYCGAEGFSYFIYWGQGSQVTVSS”, the “polyreactivity (PSR sort gate)” value was “high polyreactivity”.

Regarding “QVQLVESGGGLVQAGGSLRSSCASSGSIFDGNTMGWYRQAPGKERELVAAISYSGGSTYYADSVKGRFTISRDNAKNTVYLQMNSLKPEDTAVYYCAAEWYGYQEDDYWGQGTQVTVSS”, the “polyreactivity (PSR sort gate)” value is recorded as “low polyreactivity”.

As for “QVQLVESGGGLVQAGGSHRLSCAASGSTFVVYSLGWYRQAPGKERELVAAITSSGGRTYYADSVKGRFTISRDNAKNTVYLQMNSLKPDDTAVYYGNAVYSRQSSNKGEYWGQGTQVTVSW”, the “polyreactivity (PSR sort gate)” value is on record as “high polyreactivity”.

As to “QVQLVESGGGLVQAGGSLRLSCAASGRIFKYYAMGWSRQAPGKERELVPAINRDGGRTYYADSVKGRFTISRDNAKNTVYLQMNSLTPEETAVYYCAASYGYVYTTSLDYWGQGTQVTVSS”, the “polyreactivity (PSR sort gate)” value is given as “low polyreactivity”.

“QVQHVESGGGLVQAGGSLRLSCAASGRIFGKNDMGWYRQAPGNERELVAAITTSGGSTYYADSVKGRFTISRYNAKNTVYLQMNSLKPEDTAVYYCNAAFQNKGYIRKYKYDYWGQGTQVTVSS”: the “polyreactivity (PSR sort gate)” value was “low polyreactivity”.

Take “QVQLVESGGGLVQAGGSLRLSSTASGSTIVAYAMGWYRQAPGKERELVAAITSSGGRTYYADSVKGRFTISRDNAKNSVYLQMNSLKPEDTAVYYCAAVTHGRYDWGQGTQVTVSS”: the “polyreactivity (PSR sort gate)” value is “high polyreactivity”.

For the sequence “QVQLVESGGGLVQAGGSLRLSCAASGFIFPVYAMGWYRQAPGKERELVAAITDSGDSTYYADSVKGRFTISRDNAKNTVYLQMNSLKPEDTAVYYCAAQVQYPRWYRSGKYDYWGQGTQVTVSS”, the “polyreactivity (PSR sort gate)” value was “low polyreactivity”.

Consider “QVQLVESGAGLVQAGGRLRLSCGASGRIFGRNAMGLYRQGPGKERELVAAISYSGGSTYYADSVKGRFTISRDNAKNTVYLQMNSLKPEDTAVYYCAARYTRSGYYWGQGTQVTVSS”, for which the “polyreactivity (PSR sort gate)” value is “high polyreactivity”.

In the case of “QVQLVESGGGLVQAGGSLRLSCAASGFILGSNAMGWYRQAPGKERELVAAISRSGGSTYYADSVKGRFTISRDNAKNTVYLQMNSLKPEDTAVYYCNRVASVRARDYDYWGQGTQVTVSS”, the “polyreactivity (PSR sort gate)” value is given as “high polyreactivity”.

On to “QVQLVESGGGLVQAGGILRLSCAASGFTFISNAMGWYRQAPGKERELVAAISSSGGRTYYADSVKGRFTISRDNAKNTVYLQMNRLKPEDTAVYYCNADRSLLYSRKIEYDYWGQGTQVTVSS”, for which the “polyreactivity (PSR sort gate)” value is “low polyreactivity”.

As to “QVQLVESGGGLVQAGGSLRLICAASGNTLIVNAMGWYRQAPGKERELVAAITRDGRTNYADSVKGRFTISRDNAKNTVYLQMNSLKPEDTAVYYCAARLAQSTGYGYWGQGTQVTVSS”, the “polyreactivity (PSR sort gate)” value is on record as “low polyreactivity”.

In the case of “QVQLVESGGGLVQAGGSLRLSCAASGRIFGVYAMGCYRQAPGKDRELVAAISSTGGSTYYADSVKGRFTISRDNAKNTVYLQMNSMKPEDTAVYYCEYDYWGQGTQVTVSS”, the “polyreactivity (PSR sort gate)” value is “low polyreactivity”.

Regarding “QVQLVESGGGLVQAGGSLRLSCAASGSTFFQYAMGWYRQAPGKERELVAAITTSGGRTYYADSVKGRFTISRDNAKNTVYLQMNSLKPEDTAVYYCAGYNYWGQGTQVTVSS”, the “polyreactivity (PSR sort gate)” value was “high polyreactivity”.

For the sequence “QVQLVESGGGLVQAGGSLRLSCAASGRTFLPNAMGWYRQAPGKERELVAVITSGGSTNYADSVKGRFTISRDNAKNTVYLQMNSLKPEDTAVYYCAARRWSSSQGHWGKSAGYGYLGQGTQVTVSS”, the “polyreactivity (PSR sort gate)” value is “low polyreactivity”.

Consider “QVQLVESGGGLVQAGGSLRLSCAASGITFKWNDMGWYRQAPGKEREFVAAITGSTGSTFYAGSVKGRFTISRDNAKNTVYLQMNSLKPEDTAVYYCAAGPWFYYWGQGTQVTVSS”, for which the “polyreactivity (PSR sort gate)” value is listed as “low polyreactivity”.

Take “QVQLVESGGGLVQAGGSLRLSCAASGSIFLHYAMGWYRQAPGKERELVAAISRSGGRTYYADSVKGRFTISRDNAKNTVYLQMNSLKPEDTAVYYCAARVPRYRKDSVWAYYYWGQGPQVTVSS”: the “polyreactivity (PSR sort gate)” value was “high polyreactivity”.

For “QVQLVESGGGLVQAGGSLRLSCAASGRIFTNNAMGWYRQAPGKERELVAAISRSGGRTYYADSVKGRFTISRDNAKNTVYLQMNSLKPEDTAVYYCAAVHLYYGYNSPFTMDYWGQGTQVTVSS”, the “polyreactivity (PSR sort gate)” value was “high polyreactivity”.

With “QVQLVESGGGLVQAGGRRRLICAASGSTFVRNAMGWYRQAPGKERELVATISSGGGTKYADSVKGRFTISRDNAKNTVYLQMNSLKPEDTAVYYCAARYRSYAVRLRGYDYWGQGTQVTVSS”, the “polyreactivity (PSR sort gate)” value is listed as “high polyreactivity”.

In the case of “QVQLVESGGGLVQAGGSLRLSCAASGIIFVRNAMGWYRQAPGKERELVAAITWRGSTYYADSVKGRFTISRDNAKNTVYLQMNSLKPEDTAVYYCAAQWLYLEYDYWGQGTQVTVSS”, the “polyreactivity (PSR sort gate)” value was “high polyreactivity”.

For “QVQLVESGGGLGQAGGSLRLSCAASGFIFVWYAMGWYRQAPGKERELVAAINWSGGHTYYADSVKGRFTISRDNSKNTVYLQMNSLKPEDTAVYYWNADSLWYWFYPYNYWGQGTQVTVSS”, the “polyreactivity (PSR sort gate)” value is recorded as “low polyreactivity”.

On to “QVQLVESGGGLVQAGGSLRLSCAASGSTFSINAMGWYRQAPGKERELVAAITWRGTRTYYADSVKGRFTISRDNAKNTVYLQMNSLTPEDTAVYYCAATGSGQASYYYWGQGTQVTVSS”, for which the “polyreactivity (PSR sort gate)” value is reported as “high polyreactivity”.

Regarding “QVQLVESGGGLVQAGGSLRLSCAASGGIFRKYAMGWDRQAPGKERDLVAAITSGGGTYYADSVKGRFTISRDNAKNTVLLQMNSQKPEDTAVYYCAARTLYVARRRPYYYWGQGTLVTVSS”, the “polyreactivity (PSR sort gate)” value is recorded as “high polyreactivity”.

In the case of “QVQLVESGGGLVQAGGSVRLSCAASGSTFLYNAMGWYRQAPGKEREVVAGIRRSGGSTYYADSVKGRFTISRANAKNTVYLQMNSLKPEDTAVYYCAVVPAMYRYRVVTYAYDYWGQGTQVNVSS”, the “polyreactivity (PSR sort gate)” value is “low polyreactivity”.

For “QVQLVESGGGLVQAGGSLRLSCAASGSTFSRNAMGWSRQAPGKERELVAAITRSGGSTYYADSVKGRFSISRDNAKNTVYLQMNSLKPEDTAVYYCAVLSVRRSYNYWGQGTQVTVSS”, the “polyreactivity (PSR sort gate)” value is “high polyreactivity”.

“QVQLVESGGGLVQAGGSLRLSCAASGFTFYYYAMGWYRQAPGKERELVAAISYSGGSTYYADSVKGRFTISRDNAKNTVYLQMNSLKPEDTAVYYCAALYTGESGYWGQGTQVTVSS”: the “polyreactivity (PSR sort gate)” value is given as “high polyreactivity”.

Turning to “QVQLVETGGGLVQAGGSLRLSCAASGCIITYYAMGWYRPAPGKERELVAAITASGSRTYYADSVKGRFTISRDNAKNTVYLQMNSLKPEDTAVYDCASDNWQWYPSTWYDYWGQGTQVTVSS”, the “polyreactivity (PSR sort gate)” value is “high polyreactivity”.

In the case of “QVQLVESGGGLVQAGGSLRISCAASGSIFQGYAMGWYRQAPGKERELVATITWSGGSTYYADSVTGRFTISRDNAKNTVYLQMNSLKPEETAVYYCNADSNGYYLWNYYGMYDYWGQGTEVTVSS”, the “polyreactivity (PSR sort gate)” value is given as “low polyreactivity”.

Consider “QVQLVESGGRLVQAGGSLRLSCAASGRTFVTNAMGWYRQAPGQERELVAAISSNGGSTYYADSVKGRFTISRDNAKNTVYLQMNSLKPEDTAVYYCNAEGQPLYVSWHDHRYIYGFDYWGQGTQVTVSS”, for which the “polyreactivity (PSR sort gate)” value is given as “low polyreactivity”.

As for “QVQLRESGCGLVQAGGNLRLSCAASGNIFDADIMGWYRQAPGKERELVASITDGGSTYYADSVRCRFTISRDNAKNTVYLQMNSLKPEDTAVYYCTAIAYPDIPTYFDHDSDYFYWGQGTQVTVSS”, the “polyreactivity (PSR sort gate)” value is reported as “high polyreactivity”.

On to “QVQLVESGGGLVQAGGSLRLSCAASGFIFLTNAMGWYRQAPWKERELVAAITGGGITYYADSVKGRFTISLDNAKNTVYLQMNSLNPEDTAVYYCATDSLIFTIFDYWGQGSQVTVSS”, for which the “polyreactivity (PSR sort gate)” value is recorded as “low polyreactivity”.

As for “QVQLGESGGGLFQAGGSLRLSCAASGRTFVTYAMVWYRQAPGKERELVAAISKRGSRTYYADSVKGRFTISRDNAKNTVYLQMNTLKPEDTAVYYCAVVYSIYTRGYDYWGQGTQVTVSS”, the “polyreactivity (PSR sort gate)” value is “high polyreactivity”.

With “QVQLVESGGGLVQAGGSLRLSGAASGLIFSRYAMGWYRQAPGKVRELVAAITSGTSTYDADSVKGRFTISRDNAKNTVYKQMNSLKPEDTAGYYCAARWWTYNARDYPDYYWGQGTQVTVSS”, the “polyreactivity (PSR sort gate)” value is on record as “high polyreactivity”.

As for “QVQLVESGGGLVQAGGSLRLSCAASGSIIKRNAMGWYRQAPGKERELVASISSGGSTKYADSVKGRFTISRDNAKNTVYLQKNSLKPEDTAVSYCAKRSSQTRRAYDYGGQGTQVTVSS”, the “polyreactivity (PSR sort gate)” value was “low polyreactivity”.

Take “QVQLVESGGGLVQAGGSLRLSCAASGRTFRINTMGWYRQAPGKERELVATITGSGGSTYYADSVKGRFTISRDNANNTVYLQMNSLKPEDTAVYYCAAFGDQNEYDYWGQGTQVTVSS”: the “polyreactivity (PSR sort gate)” value is given as “low polyreactivity”.

For the sequence “QVQLVESGGGLVQAGGTLRVSCAASGLIFYGNVMGWYRQAPGKERELVAGISRNSGSTYYADSVKGRFTISRDNANNTVYLQMNSLKPEDTAVYYCAALKFEAWAGEDYWGPGTQVTVSS”, the “polyreactivity (PSR sort gate)” value was “low polyreactivity”.

As to “QVQLVESGGGLVQAGGSIRLSCAASGRISAPNAMGWYRQAAVKERELVAAISSGGRTNYADSVKGRFTISRDNEKNTVYLQMNSLKPEDTAVYYCAAYYYNDRMYYWGQGNQVTVSS”, the “polyreactivity (PSR sort gate)” value is “high polyreactivity”.

Regarding “QVQLVESGGGLVQAGGSLRLSCAASGSTFYYNAMGWYRQAPGKEREFVAGITSSGAGTYYADSVKGRFTISRDNAKNTVYLQMNSLKPEDTAVYYCAAVYRWEGRTYRYGYWGQGTQVTVSS”, the “polyreactivity (PSR sort gate)” value was “high polyreactivity”.

Consider “QDQLVESGGGLVQAGGSLRLSCAASGSTLYAYAMGWYRQAPGKERELVAAISFSTTSTYYADSVKGRFTISRDYEKNTVYLQMNSLKPEDTAVYYCAAEYWYYWEYEYWGLGTQVTVSS”, for which the “polyreactivity (PSR sort gate)” value is on record as “high polyreactivity”.

As for “QVQLVESGGGLVQAGGSLRLSCAASGFTFDVNAMGWYRQAPGKERELVASITGSGSRTDYADSVKGRFTISRDNAKNTVYLQMNSLKPEDTAVYYCATDQRLGYQDDDYWGQGTQVTVSS”, the “polyreactivity (PSR sort gate)” value is “low polyreactivity”.

On to “QVQLVESGGGLDQAGGSHRLSCAASGRIFTYNAIGWYRQAPGKERELVAAISRRGGTTYYADSVKGRFTISRDNAKNTVYLQMNSLKPEDTAVYYCAAVVFTRGVTSRTVSRYDYWGQGTLVTVSS”, for which the “polyreactivity (PSR sort gate)” value is “high polyreactivity”.
